Reference: the supplement of paper PMC10567573

B1: WEE1 (parent)
chain: FLGSSFSPVRCGGPGDASPRGCGA
B2: DCAF4 (parent)
chain: DSHILLCLMGLAETPGCATLLPAS

Variants of: B1
Assay: protein stability index of a GFP-peptide fusion (GPS, HEK-293T) (PSI 1-6); higher = more stable
Conditions: c terminus: a fixed tail appended
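Further: lentivirally expressed fusions sorted by FACS into six bins by GFP to DsRed ratio, PSI derived from sequencing read proportions per bin multiplied by bin number.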

Protein stability index of substitutions, site by site:
F1: A 2.89, C 2.82, R 2.46, M 2.29, I 2.72, G 3.25, H 3.26, Y 1.87, P 3.4, V 3.77, T 2.82, W 2.16, Q 3.36, N 2.48, L 2.56, K 2.95, D 2.95, S 2.87
L2: A 2.06, F 2.51, D 3.37, E 3.41, C 1.95, G 1.93

Variants of: B2
Assay: as above
Conditions: c terminus: a fixed tail appended

Protein stability index of substitutions, site by site:
M9: P 2.12, S 1.67, D 1.92, Y 3.06, E 2.02, Q 2.26, K 1.42, A 2.83, G 1.7, T 1.98, V 2.83, C 1.71, R 1.82, W 4.64
S2: F 3.1, K 2.03, D 2.64, E 2.48, Q 3.81, R 2.46, V 3.74, H 1.36, T 2.09, A 3.22, I 2.04, W 2.68, G 3.25, P 2.04
L8: C 2.39, R 2.62, S 1.69, P 2.5, N 2.58, Y 3.55, D 3.14, E 2.36, H 1.51, Q 1.95, T 1.97, K 2.02, M 3.25, G 1.93
I4: P 1.86, A 1.67, T 1.93, C 2.15, K 2.2, D 1.92, S 1.82, Y 2.33, V 3.46, R 1.77, G 2.11, W 2.97, H 1.64, N 1.93, M 1.86, F 2.53
L20: T 2.07, I 2.38, P 2, A 3.72, F 3.14, V 2.36, S 2.54, K 2.4, Q 1.93, G 2.44, N 2.9, R 2.34, C 2.91, M 2.52, H 2.36
P22: H 3.65, A 3.01, R 3.03, K 3.2
L6: W 4.4, K 2.19, C 3.71, A 1.87, V 1.37, Y 2.86, Q 1.81, R 2.98, F 2.68, H 1.9, E 2.01, S 1.53, P 2.74, G 1.87, T 1.5, I 2.56, M 2.02
A23: V 1.49, N 3.13, H 1.66, F 3.27, I 3.11, L 1.69, E 3.69, Q 2.72, M 1.66, C 1.89, T 2.42, Y 1.75
A18: T 2.3, S 1.6, R 3.11, N 2.07, Q 2.02, I 2.33, C 4.64, E 2.31, Y 2.47, H 2.28, F 2.32, V 1.92
C17: M 2.38, E 2.63, Y 2.55, R 1.78, N 1.99, A 2.98, L 2.23, F 2.34, T 3.4, S 2.81, H 2.58, P 3, W 2.44
H3: Y 2.67, P 2.65, N 3.2, V 2.04, L 3.05, W 3.17, G 3.24, K 1.81, R 3.45, I 3.85, A 2.76, D 2.49, T 3.73, Q 2.02
P15: K 1.78, I 2.35, S 2.52, E 2.06, R 2.66, A 3.15, G 2.54, V 2.59, Y 2.44, T 2.3, L 3.33, N 1.35, F 3.63, W 2.46
L5: E 1.78, N 1.73, D 2.09, S 1.78, G 2.01, R 1.44, C 2.07, Q 2.27, F 1.59, Y 2.77, W 2.79, P 3.06, T 1.65
S24: Y 2.91, E 1.74, I 2.82, W 2.76, C 4.56, T 3.75, N 2.69, P 2.36
E13: Y 3.33, P 2, A 3.31, F 2.49, L 2.42, T 2.89, M 3.96, D 3.06, N 2.83, H 2.77, Q 2.36, I 4.29, C 2.88, S 3.26
A12: Y 4, N 1.69, S 2.37, M 2.66, E 2.25, I 2.11, Q 2.74, P 3.88, R 2.39, D 2.02, F 3.3, C 2.96, H 2.59, K 1.92, L 2.76, W 4.01
L21: D 1.71, N 3.01, G 2.21, F 3.52, E 1.72, P 2.25, W 2.8, H 4.41, V 2.17
T19: Q 1.43, K 3.24, A 2.22, N 2.42, R 1.64, W 2.05, P 2.5, G 2.93, S 2.67, D 3.26, Y 3.13, E 3.24, F 3.47
G16: L 2.05, K 1.38, R 2.39, N 2.77, Y 2.65, D 3.45, A 3.16, F 2.85, T 1.99, Q 2.81, P 4.04, V 2.76, I 2.9, M 2.6
D1: G 3.42, E 2.55, Q 2.87, L 3.08, Y 1.7, V 3.42, W 3.42, C 3.49, R 4.01, T 2.58, S 3.75
G10: S 3.06, E 1.79, I 3.16, H 3.23, C 3.17, L 2.56, F 2.99, Q 2.23, D 2.89, M 2.95
L11: Y 3.55, A 2.08, K 1.71, W 1.8, H 2.36, S 1.4, P 2.59, I 1.97, N 1.27, E 1.3, D 1.66, F 2.98, V 2.65, C 2.76, M 2.42
C7: M 2.11, E 1.7, G 2.32, I 2.51, P 2.47, A 2.67, V 2.19, H 2.9, F 2.76, R 2.1, S 1.55, W 3.65, D 1.78
T14: M 2.26, Y 3.79, C 2.24, W 2.89, L 3.09, E 2.95, N 3.05, S 2.47, H 3.66, G 2.77, P 2.53, V 2.66, D 1.92, A 2.93, K 3.42
